Tests used:
[1] = target: T1, cynomolgus CTLA4 expressed on the cell surface of CHO cells (cynomolgus, UniProt G7PL88 36-223); test: FACS on CHO-cynoCTLA4 cells, pH 6.0, mean
T1 construct: whole, on cells; also called CHO-cynoCTLA4
T1 sequence: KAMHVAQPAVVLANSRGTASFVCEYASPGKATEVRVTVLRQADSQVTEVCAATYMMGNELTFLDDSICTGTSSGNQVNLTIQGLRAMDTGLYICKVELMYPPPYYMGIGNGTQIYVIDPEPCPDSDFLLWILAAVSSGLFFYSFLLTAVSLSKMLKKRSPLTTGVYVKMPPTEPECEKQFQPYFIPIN
Description: The amount of antibodies bound on the cells was quantified using anti-human IgG antibody conjugated to fluorophores. EC₅₀ values at pH 6.0 and 7.4 for binding to cells were calculated using the nonlinear fit (variable slope, four parameters) model built into GraphPad Prism software (version 7.03). The expression levels of human CTLA4 or cynomolgus CTLA4 on the surface of the CHO cells were determined using a BD QuantiBRITE™ PE kit.

[2] = target: T1, cynomolgus CTLA4 expressed on the cell …; test: FACS, CHO cells expressing cynomolgus CTLA4 (CHO-cynoCTLA-4), pH 7.4, MFI; no unit in the table, unit from the axis Log Antibodies [ng/ml]
[3] = target: T2, recombinant cynomolgus CTLA4 extracellular domain (cynomolgus, UniProt G7PL88 36-161); test: ELISA, immobilised cynoCTLA-4, pH 6.0, Jun. 19, 2017
T2 construct: extracellular domain; also called cynoCTLA-4; cynoCTLA4
T2 sequence: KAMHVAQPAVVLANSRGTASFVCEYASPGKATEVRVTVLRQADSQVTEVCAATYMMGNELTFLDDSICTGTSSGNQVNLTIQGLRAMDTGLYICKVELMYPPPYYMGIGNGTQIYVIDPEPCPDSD

[4] = target: T2, recombinant cynomolgus CTLA4 …; test: ELISA, immobilised cynoCTLA-4, pH 6.0, mean +/- SD
[5] = target: T2, recombinant cynomolgus CTLA4 …; test: SPR, cynomolgus CTLA4 ECD immobilised, pH 6.0, equilibrium fit
[6] = target: T2, recombinant cynomolgus CTLA4 …; test: ELISA, immobilised cynoCTLA-4, pH 6.0, Jun. 27, 2017
[7] = target: T3, human CTLA4 expressed on the cell surface of CHO cells (human, UniProt P16410 36-223); test: FACS competition on CHO-huCTLA4: hB7-2 titrated against a fixed concentration of BA-087-05-19, bound antibody detected, % competition; pH 6.0 per the text; no plateau reached (about 25 to 45 % at log 3.95); unit from the axis hB7-2 log[ng/mL]
T3 construct: whole, on cells; also called CHO-huCTLA4; huCTLA4
T3 sequence (looked up): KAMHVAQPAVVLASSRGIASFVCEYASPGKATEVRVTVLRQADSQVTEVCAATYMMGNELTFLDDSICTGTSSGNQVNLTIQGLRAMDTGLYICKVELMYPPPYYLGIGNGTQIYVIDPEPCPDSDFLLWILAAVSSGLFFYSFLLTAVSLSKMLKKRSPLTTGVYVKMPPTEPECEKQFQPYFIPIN

[8] = target: T3, human CTLA4 expressed on the cell …; test: FACS competition on CHO-huCTLA4: hB7-2 titrated against a fixed concentration of BA-087-08-32, bound antibody detected, % competition; pH 6.0 per the text; no plateau reached (about 25 to 45 % at log 3.95); unit from the axis hB7-2 log[ng/mL]
[9] = target: T3, human CTLA4 expressed on the cell …; test: FACS competition on CHO-huCTLA4: hB7-2 titrated against a fixed concentration of Ipi Analog, bound antibody detected, % competition; pH 6.0 per the text; no plateau reached (about 25 to 45 % at log 3.95), fit marked ~; unit from the axis hB7-2 log[ng/mL]
[10] = target: T3, human CTLA4 expressed on the cell …; test: FACS competition on CHO-huCTLA4: hB7-2 titrated against a fixed concentration of Ipilimumab, bound antibody detected, % competition; pH 6.0 per the text; no plateau reached (about 25 to 45 % at log 3.95); unit from the axis hB7-2 log[ng/mL]

B1: Ipilimumab (antibody, V domains shown)
VH: QVQLVESGGGVVQPGRSLRLSCAASGFTFSSYTMHWVRQAPGKGLEWVTFISYDGNNKYYADSVKGRFTISRDNSKNTLYLQMNSLRAEDTAIYYCARTGWLGPFDYWGQGTLVTVSS
VL: not shown
[1]
  EC50: 0.338 µg/mL
[2]
  EC50: 0.177 µg/mL
[3]
  EC50: 0.00966 µg/mL
[4]
  EC50: 0.0153 µg/mL
[5]
  Kd: 6.58 nM
[6]
  EC50: 0.021 µg/mL

B2: hB7-2 (hCD86) (ligand, human, UniProt P42081 24-247, looked up)
chain: APLKIQAYFNETADLPCQFANSQNQSLSELVVFWQDQENLVLNEVYLGKEKFDSVHSKYMGRTSFDSDSWTLRLHNLQIKDKGLYQCIIHHKKPTGMIRIHQMNSELSVLANFSQPEIVPISNITENVYINLTCSSIHGYPEPKKMSVLLRTKNSTIEYDGVMQKSQDNVTELYDVSISLSVSFPDVTSNMTIFCILETDKTRLLSSPFSIELEDPQPPPDHIP
[7]
  EC50: 3.73 µg/mL
[8]
  EC50: 3.87 µg/mL
[9]
  EC50: ~2.45 µg/mL
[10]
  EC50: 7.19 µg/mL

Source: US20210403565A1 (BIOATLA, published 2021)
